Laboratory results: paper PMC9753469 (2022)

B1: MBP-KRAB (ZNF93 KRAB E35R) (domain or fragment)
chain: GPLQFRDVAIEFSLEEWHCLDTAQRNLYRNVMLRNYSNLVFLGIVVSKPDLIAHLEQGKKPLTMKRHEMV
B2: MBP-KRAB (ZNF93 KRAB, wild type) (domain or fragment)
chain: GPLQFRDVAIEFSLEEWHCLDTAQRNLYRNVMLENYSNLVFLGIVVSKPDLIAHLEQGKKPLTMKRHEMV
B3: KAP1 RBCC (wild type), SPR analyte (domain or fragment)
chain: SPAGGGAEALELLEHCGVCRERLRPEREPRLLPCLHSACSACLGPAAPAAANSSGDGGAAGDGTVVDCPVCKQQCFSKDIVENYFMRDSGSKAATDAQDANQCCTSCEDNAPATSYCVECSEPLCETCVEAHQRVKYTKDHTVRSTGPAKSRDGERTVYCNVHKHEPLVLFCESCDTLTCRDCQLNAHKDHQYQFLEDAVRNQRKLLASLVKRLGDKHATLQKSTKEVRSSIRQVSDVQKRVQVDVKMAILQIMKELNKRGRVLVNDAQKVTEGQQERLERQHWTMTKIQKHQEHILRFASWALESDNNTALLLSKKLIYFQLHRALKMIVDPVEPHGEMKFQWDLNAWTKSAEAFGKIVAERP

Experiments:
[1] = target: T1, KAP1 RBCC R311E, SPR analyte (human (by the printed UniProt entry), UniProt Q13263 1-835, R311E); assay: SPR; minor phase
[2] = target: T1, KAP1 RBCC R311E, SPR analyte; assay: SPR; major phase
[3] = target: T1, KAP1 RBCC R311E, SPR analyte; assay: SPR
[4] = target: T1, KAP1 RBCC R311E, SPR analyte; assay: SPR; major phase; remark: listed apart in the source
[5] = target: B2; assay: SPR; minor phase
[6] = target: B1; assay: SPR; minor phase
[7] = target: B2; assay: SPR; major phase
[8] = target: B1; assay: SPR; major phase
[9] = target: B2; assay: SPR; minor phase; remark: listed apart in the source

Binder	Kd [1] [µM]	koff [2] [s⁻¹]	Kd [3] [µM]	Kd [4] [µM]	Kd [5] [µM]	Kd [6] [µM]	koff [7] [s⁻¹]	koff [8] [s⁻¹]	koff [9] [s⁻¹]
B1	35.6	0.0037	–	–	–	–	–	–	–
B2	2	0.00083	0.029	0.029	–	–	–	–	–
B3	–	–	–	–	19	47	0.000232	0.008	0.0061
